One test addresses T1, Goat anti-Human Kappa.
T1 construct: Positive control of the ELISA; also called biotinylated goat anti-human kappa light chain
As to the kind of experiment: ELISA, positive control. Put shortly: (§1)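 Monoclonal antibodies were first applied to human or mouse ACVR2A, alongside biotinylated goat anti-human kappa light chain (positive control) and human Fc (negative control); binding was then determined by ELISA.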
(ELISA stands for enzyme-linked immunosorbent assay.)

A further test deals with T2, Human ACVR2A (human, UniProt P27037 20-135, limits assumed).
T2 construct: also called activin receptor, type II A
T2 sequence (P27037 20-135 limits assumed): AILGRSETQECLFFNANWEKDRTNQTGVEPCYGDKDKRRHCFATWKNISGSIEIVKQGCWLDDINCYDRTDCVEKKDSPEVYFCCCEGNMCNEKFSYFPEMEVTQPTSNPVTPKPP
Description: ELISA. Put shortly: as §1

A further test has as its target Mouse ACVR2A (mouse, UniProt P27038 20-135, limits assumed). Description: ELISA. Put shortly: as §1
Further: test concentration or dose not given here.

Mouse ACVR2A, sequence (P27038 20-135 limits assumed): as the sequence (P27037 20-135 limits assumed) above, with K20R, V73I counted along it

B1: 368_E02 (antibody, V domains shown)
VH: EVQLLESGGGLVQPGGSLRLSCAASGFTFDSYSMNWVRQAPGKGLEWVAGINYNSGYTSYADSVKGRFTISRDNSKNTLYLQMNSLRAEDTAVYYCARSANWHDTHLDYWGQGTLVTVSS
VL: DIQMTQSPSSLSASVGDRVTITCRASQSILTYLNWYQQKPGKAPKLLIYAATSRASGVPSRFSGSGSGTDFTLTISSLQPEDFATYYCQQSYSSPLTFGGGTKVEIK
Turning to B1, the optical density with Goat anti-Human Kappa worked out at 3.68 OD; in the test with Human ACVR2A it was 2.5 OD; with Mouse ACVR2A, 2.79 OD.

B2: 369_C02 (antibody, V domains shown)
VH: EVQLLESGGGLVQPGGSLRLSCAASGFTFDSYSMNWVRQAPGKGLEWVSNINYNGGYKSYADSVKGRFTISRDNSKNTLYLQMNSLRAEDTAVYYCARSANWHDTALDYWGQGTLVTVSS
VL: DIQMTQSPSSLSASVGDRVTITCRASQSILTYLNWYQQKPGKAPKLVIYAATSRASGVPSRFSGSGSGTDFTLTISSLQPEDFATYYCQQSYELPLTFGGGTKVEIK
As for B2, the optical density in the test with Goat anti-Human Kappa was 3.54 OD; in the test with Human ACVR2A, 3.6 OD; with Mouse ACVR2A, 3.52 OD.

B3: 368_F11 (antibody, V domains shown)
VH: EVQLLESGGGLVQPGGSLRLSCAASGFTFSDYGMNWVRQAPGKGLEWVSGINYNGGYTSYADSVKGRFTISRDNSKNTLYLQMNSLRAEDTAVYYCARSANWHDTHLDYWGQGTLVTVSS
VL: DIQMTQSPSSLSASVGDRVTITCRASQSIVSYVNWYQQKPGKAPKLVIYAATSRASGVPSRFSGSGSGTDFTLTISSLQPEDFATYYCQQSYNNPLTFGGGTKVEIK
Regarding B3, the optical density with Goat anti-Human Kappa was 3.53 OD; with Human ACVR2A it was 2.58 OD; with Mouse ACVR2A, 2.73 OD.

B4: 368_G12 (antibody, V domains shown)
VH: EVQLLESGGGLVQPGGSLRLSCAASGFTFSSYGMNWVRQAPGKGLEWVASINYNSGYTGYADSVKGRFTISRDNSKNTLYLQMNSLRAEDTAVYYCARSANWHDTALDYWGQGTLVTVSS
VL: DIQMTQSPSSLSASVGDRVTITCRASQSISSYVNWYQQKPGKAPKLVIYAVTSRASGVPSRFSGSGSGTDFTLTISSLQPEDFATYYCQQSYETPLTFGGGTKVEIK
Turning to B4, the optical density with Goat anti-Human Kappa came out at 3.52 OD; with Human ACVR2A it was 2.46 OD; with Mouse ACVR2A it was 2.54 OD.

B5: 369_A02 (antibody, V domains shown)
VH: EVQLLESGGGLVQPGGSLRLSCAASGFTFSSYSMNWVRQAPGKGLEWVAGINYNSGYTGYADSVKGRFTISRDNSKNTLYLQMNSLRAEDTAVYYCARSANWHDTHLDYWGQGTLVTVSS
VL: DIQMTQSPSSLSASVGDRVTITCRASQSILSYVNWYQQKPGKAPKLLIYAATSRASGVPSRFSGSGSGTDFTLTISSLQPEDFATYYCQQSYDLPLTFGGGTKVEIK
Consider B5, for which the optical density with Goat anti-Human Kappa came to 3.49 OD; in the test with Human ACVR2A, 3.15 OD; with Mouse ACVR2A it was 3.46 OD.

B6: 369_C04 (antibody, V domains shown)
VH: EVQLLESGGGLVQPGGSLRLSCAASGFTFSSYSMNWVRQAPGKGLEWVSNINYNGGYTGYADSVKGRFTISRDNSKNTLYLQMNSLRAEDTAVYYCARSANWHDTALDYWGQGTLVTVSS
VL: DIQMTQSPSSLSASVGDRVTITCRASQSILTYVNWYQQKPGKAPKLLIYTTTSLHSGVPSRFSGSGSGTDFTLTISSLQPEDFATYYCQQSYNNPLTFGGGTKVEIK
Consider B6, for which the optical density with Goat anti-Human Kappa is 2.46 OD; with Human ACVR2A, 1.64 OD; in the test with Mouse ACVR2A, 1.65 OD.

B7: 369_D01 (antibody, V domains shown)
VH: EVQLLESGGGLVQPGGSLRLSCAASGFTFSDYGMNWVRQAPGKGLEWVASINYNGGYTGYADSVKGRFTISRDNSKNTLYLQMNSLRAEDTAVYYCARSANWHDTALDYWGQGTLVTVSS
VL: DIQMTQSPSSLSASVGDRVTITCRASQSILTYLNWYQQKPGKAPKLLIYAATSRASGVPSRFSGSGSGTDFTLTISSLQPEDFATYYCQQSYSNPLTFGGGTKVEIK
With B7, the optical density with Goat anti-Human Kappa was determined as 3.63 OD; with Human ACVR2A, 3.13 OD; with Mouse ACVR2A, 3.32 OD.

B8: 369_C03 (antibody, V domains shown)
VH: EVQLLESGGGLVQPGGSLRLSCAASGFTFSSYGMNWVRQAPGKGLEWVSNINYNGGYKSYADSVKGRFTISRDNSKNTLYLQMNSLRAEDTAVYYCARSANWHDTALDYWGQGTLVTVSS
VL: DIQMTQSPSSLSASVGDRVTITCRASQSILTYLNWYQQKPGKAPKLVIYAATSRASGVPSRFSGSGSGTDFTLTISSLQPEDFATYYCQQSYDSPLTFGGGTKVEIK
Consider B8, for which the optical density was determined as 3.52 OD with Goat anti-Human Kappa, 3.37 OD with Human ACVR2A and 3.65 OD in the test with Mouse ACVR2A.

B9: 368_E04 (antibody, V domains shown)
VH: EVQLLESGGGLVQPGGSLRLSCAASGFTFSSYSMNWVRQAPGKGLEWVANINYNSGYTGYADSVKGRFTISRDNSKNTLYLQMNSLRAEDTAVYYCARSANWHDTALDYWGQGTLVTVSS
VL: DIQMTQSPSSLSASVGDRVTITCRASQSILSYVNWYQQKPGKAPKLLIYAATSRHSGVPSRFSGSGSGTDFTLTISSLQPEDFATYYCQQSYDNPLTFGGGTKVEIK
With B9, the optical density in the test with Goat anti-Human Kappa stood at 3.48 OD; with Human ACVR2A, 3.08 OD; with Mouse ACVR2A, 3.23 OD.

B10: 369_D04 (antibody, V domains shown)
VH: EVQLLESGGGLVQPGGSLRLSCAASGFTFDSYGMNWVRQAPGKGLEWVSGINYNGGYTSYADSVKGRFTISRDNSKNTLYLQMNSLRAEDTAVYYCARSANWHDTALDYWGQGTLVTVSS
VL: DIQMTQSPSSLSASVGDRVTITCRASQSILSYVNWYQQKPGKAPKLVIYAATSRASGVPSRFSGSGSGTDFTLTISSLQPEDFATYYCQQSYNLPLTFGGGTKVEIK
In the case of B10, the optical density is 3.59 OD in the test with Goat anti-Human Kappa, 3.05 OD with Human ACVR2A and 2.97 OD with Mouse ACVR2A.

B11: 368_E07 (antibody, V domains shown)
VH: EVQLLESGGGLVQPGGSLRLSCAASGFTFSSYGMNWVRQAPGKGLEWVAGINYNGGYTSYADSVKGRFTISRDNSKNTLYLQMNSLRAEDTAVYYCAKSANWHDTALDYWGQGTLVTVSS
VL: DIQMTQSPSSLSASVGDRVTITCRASQSILSYLNWYQQKPGKAPKLLIYAVTSRASGVPSRFSGSGSGTDFTLTISSLQPEDFATYYCQQSYENPLTFGGGTKVEIK
Turning to B11, the optical density was 3.45 OD with Goat anti-Human Kappa, 1.07 OD with Human ACVR2A and 1.17 OD in the test with Mouse ACVR2A.

B12: 368_F03 (antibody, V domains shown)
VH: EVQLLESGGGLVQPGGSLRLSCAASGFTFDSYSMNWVRQAPGKGLEWVAGINYNSGYTGYADSVKGRFTISRDNSKNTLYLQMNSLRAEDTAVYYCAKSANWHDTALDYWGQGTLVTVSS
VL: DIQMTQSPSSLSASVGDRVTITCRASQSIISYLNWYQQKPGKAPKLVIYAATSRHSGVPSRFSGSGSGTDFTLTISSLQPEDFATYYCQQSYDSPLTFGGGTKVEIK
B12: the results for the optical density with Goat anti-Human Kappa, in the test with Human ACVR2A and with Mouse ACVR2A were 3.6 OD, 2.35 OD and 2.6 OD, respectively.

B13: 368_H04 (antibody, V domains shown)
VH: EVQLLESGGGLVQPGGSLRLSCAASGFTFSSYSMNWVRQAPGKGLEWVAGINYNSGYKGYADSVKGRFTISRDNSKNTLYLQMNSLRAEDTAVYYCAKSANWHDTHLDYWGQGTLVTVSS
VL: DIQMTQSPSSLSASVGDRVTITCRASQSIVSYVNWYQQKPGKAPKLLIYAATSRASGVPSRFSGSGSGTDFTLTISSLQPEDFATYYCQQSYDSPLTFGGGTKVEIK
Take B13: the optical density in the test with Goat anti-Human Kappa came to 3.51 OD; in the test with Human ACVR2A, 1.06 OD; in the test with Mouse ACVR2A, 1.36 OD.

B14: 368_G01 (antibody, V domains shown)
VH: EVQLLESGGGLVQPGGSLRLSCAASGFTFSDYGMHWVRQAPGKGLEWVASINYNSGYTSYADSVKGRFTISRDNSKNTLYLQMNSLRAEDTAVYYCARSANWHDTALDYWGQGTLVTVSS
VL: DIQMTQSPSSLSASVGDRVTITCRASQSILTYLNWYQQKPGKAPKLVIYAATSRASGVPSRFSGSGSGTDFTLTISSLQPEDFATYYCQQSYNLPLTFGGGTKVEIK
For the molecule B14, the figures for the optical density with Goat anti-Human Kappa, in the test with Human ACVR2A and in the test with Mouse ACVR2A were 3.62 OD, 2.65 OD and 2.82 OD, respectively.

B15: 369_B01 (antibody, V domains shown)
VH: EVQLLESGGGLVQPGGSLRLSCAASGFTFSSYSMNWVRQAPGKGLEWVSGINYNGGYTSYADSVKGRFTISRDNSKNTLYLQMNSLRAEDTAVYYCARSANWHDTALDYWGQGTLVTVSS
VL: DIQMTQSPSSLSASVGDRVTITCRASQSILSYLNWYQQKPGKAPKLLIYAVTSRASGVPSRFSGSGSGTDFTLTISSLQPEDFATYYCQQSYENPLTFGGGTKVEIK
Turning to B15, the figures for the optical density with Goat anti-Human Kappa, in the test with Human ACVR2A and with Mouse ACVR2A were 3.59 OD, 3.36 OD and 3.46 OD, respectively.

B16: 369_D02 (antibody, V domains shown)
VH: EVQLLESGGGLVQPGGSLRLSCAASGFTFSDYSMNWVRQAPGKGLEWVSNINYNSGYTGYADSVKGRFTISRDNSKNTLYLQMNSLRAEDTAVYYCARSANWHDTALDYWGQGTLVTVSS
VL: DIQMTQSPSSLSASVGDRVTITCRASQSILSYLNWYQQKPGKAPKLVIYAVTSRASGVPSRFSGSGSGTDFTLTISSLQPEDFATYYCQQSYDTPLTFGGGTKVEIK
As to B16, the figures for the optical density in the test with Goat anti-Human Kappa, in the test with Human ACVR2A and with Mouse ACVR2A were 3.53 OD, 3.29 OD and 3.44 OD, respectively.

B17: 368_E06 (antibody, V domains shown)
VH: EVQLLESGGGLVQPGGSLRLSCAASGFTFSDYGMHWVRQAPGKGLEWVSGINYNGGYTGYADSVKGRFTISRDNSKNTLYLQMNSLRAEDTAVYYCARSANWHDTALDYWGQGTLVTVSS
VL: DIQMTQSPSSLSASVGDRVTITCRASQSILSYLNWYQQKPGKAPKLVIYGATSRASGVPSRFSGSGSGTDFTLTISSLQPEDFATYYCQQSYDSPLTFGGGTKVEIK
Turning to B17, the values for the optical density with Goat anti-Human Kappa, in the test with Human ACVR2A and in the test with Mouse ACVR2A were 3.5 OD, 2.33 OD and 2.34 OD, respectively.

The values above are taken from patent US20210380703A1 (RIGEL PHARMACEUTICALS, published 2021).
